B1: C-type lectin lectoxin-Phi1-like (C-lectoxin), His tag removed (natural protein)
chain: DVPKDYIVNPNDSHGYKLMYHAKTWTEARDDCANVGAKLAVPKTRDQFEFIQKIVRSMQYQSIVGTEYKLLVWLGISNLKNYQVWANVDGENIEDTEFHTWAGQNGLKSENPAEPHCVGMDSMNFGLRDWWCHQRQPYICEILTVQNATQ
modifications: Wild-type trypsin-activated core; the text prints neither the Cry1F subtype nor the limits. Cry1Fa assumed, with the conventional tryptic core 28-612.
B2: CD63 antigen-like (CD63) tetraspanin, His tag removed (natural protein)
chain: KGNAEALVQKQLYETMQLYTHDVVVTRLWDEVQEDFSCCGVNNASDWLAPLGTANTDQGLPLSCCQFPFGTITVFNCTMATPAPTLRTEGCSTAFGAWVQSHAGS
modifications: Wild-type trypsin-activated core; the text prints neither the Cry1F subtype nor the limits. Cry1Fa assumed, with the conventional tryptic core 28-612.
B3: hemolymph lipopolysaccharide-binding protein (LBP), His tag removed (natural protein)
chain: QKRYRNDYVYDANTDAFYKFHVNMAVHWRALTICKLEGATLMVPTSVQQIAQVHGMFKQYPDIGHYVWIGDDNADHESAEETPIIDLQPEVETEAPWERRCLVLTRRGEIQTQNCRYYQSFVCMVEAKNAPYDHRCDVYAAGYEYNTDVKSCYKIPRDIKTWNAAYAECQAHGAHLVVVNSVTERDVLQALMSRTPYLRTSFSPYHYIAGIRATSVIGSEVVYRTIFNETLEEAGFSEWADNEPNNQQGIEYCGSLHQRSGKYNDISCLSSFGYICEKERNE
modifications: Wild-type trypsin-activated core; the text prints neither the Cry1F subtype nor the limits. Cry1Fa assumed, with the conventional tryptic core 28-612.
B4: C-type mannose receptor 2-like (C-MR2), His tag removed (natural protein)
chain: SELNTSKSNWFRPDYSYSERTGGWFKFHSVPATWEDARLQCYYEGAELVSPFNENIIQKMIMLMDVNEPYIFTGIHSTFSKGVYTSVGGVPLHEMPVSLHSRDVSGNCVTMRSNGRVEARNCSSQYPYICFKKGPEHLTSSVCGADQEYKYEQRTGSCYKFHTLGRTWPQAFRVCVAEGGHLAIINSDVEADVIRGIFQNYPDDAFKADAKYAASIGFQGWGAVKIWWTIHGQTLQDAGYSKWDKFVPDMRSTRHYCGAVGRNGTLSHIECEGVTFPAICEKKADLV
modifications: Wild-type trypsin-activated core; the text prints neither the Cry1F subtype nor the limits. Cry1Fa assumed, with the conventional tryptic core 28-612.

Target: Trypsin-activated Cry1F toxin from Bacillus thuringiensis (Bacillus thuringiensis, UniProt Q03746 1-1174)
Experiment: SPR; Biacore 8K; activated Cry1F immobilised on a CM5 chip (10 mM sodium acetate pH 4.0); analytes without His tag in 10 mM HEPES, 150 mM NaCl, 3 mM EDTA, 0.005% Tween-20, pH 7.4; 30 uL/min, association 120 s, dissociation 280 s; 1:1 binding model
Conditions: both partners purified

Trypsin-activated Cry1F toxin from Bacillus thuringiensis, sequence (Q03746 28-612 limits assumed): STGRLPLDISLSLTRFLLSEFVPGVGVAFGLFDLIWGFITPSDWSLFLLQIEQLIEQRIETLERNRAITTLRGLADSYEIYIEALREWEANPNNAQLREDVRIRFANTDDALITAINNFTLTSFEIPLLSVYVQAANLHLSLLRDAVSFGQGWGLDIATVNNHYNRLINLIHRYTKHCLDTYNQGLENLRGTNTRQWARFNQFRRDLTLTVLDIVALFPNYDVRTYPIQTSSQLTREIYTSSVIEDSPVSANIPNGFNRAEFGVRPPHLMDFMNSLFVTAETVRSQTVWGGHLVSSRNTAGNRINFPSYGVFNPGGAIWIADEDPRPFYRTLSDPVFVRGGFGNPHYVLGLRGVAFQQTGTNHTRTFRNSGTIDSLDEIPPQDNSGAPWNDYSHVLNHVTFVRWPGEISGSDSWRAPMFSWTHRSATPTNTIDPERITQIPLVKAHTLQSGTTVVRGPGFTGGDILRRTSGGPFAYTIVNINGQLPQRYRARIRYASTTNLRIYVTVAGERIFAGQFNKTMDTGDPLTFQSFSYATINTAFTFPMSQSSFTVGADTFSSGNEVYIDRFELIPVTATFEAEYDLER

Binder | Kd [nM] | koff [s⁻¹] | kon [M⁻¹ s⁻¹]
B1 | 46.6 | 0.00513 | 110000
B2 | 294 | 0.00474 | 16100
B3 | 119 | 0.00294 | 24700
B4 | 22.1 | 0.0041 | 185000
